Assay results: the supplement of paper PMC7877785
± gives the uncertainty stated by the source.

Experiment: self-splicing fitness, log relative to wild type (ln ratio); higher = more splicing; Tetrahymena group I intron in knt gene, E. coli kanamycin selection, DiMSum; sequences stand for … in CUCUCU…GGAGGGAAAAGUUAUCAGGCAUGCACCUGGUAGCUAGUCUUUAAACCAAUAGAUUGCAUCGGUUUAAAAGGCAAGACCGUCAAAUUGCGGGAAAGGGGUCAACAGCCGUUCAGUACCAAGUCUCAGGGGAAACUUUGAGAUGGCCUUGCAAAGGGUAUGGUAAUAAGCUGACGGACAUGGUCCUAACCACGCAGCCAAGUCCUAAGUCAACAGAUCUUCUGUUGAUAUGGAUGCAGUUCACAGACUAAAUGUCGGUCGGGGAAGAUGUAUUCUUCUCAUAAGAUAUAGUCGGACCUCUCCUUAAUGGGAGCUAGCGGAUGAAGUGAUGCAACACUGGAGCCGCUGGGAACUAAUUUGUAUGCGAAAGUAUAUUGAUUAGUUUUGGAGUACUCGUGGUCG
In short: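 Fitness was computed with DiMSum as the error-weighted combination of replicate fold changes, kanamycin versus none, each normalised to wild type. The library randomised all eight intron nucleotides of the P1ex region, with the intron placed in the knt kanamycin-resistance gene on pET-22b(+) in E. coli BL21(DE3). Six replicate transformations were grown overnight at 37°C or 30°C on LB agar with or without 25 μg/mL kanamycin, plus 100 μg/mL carbenicillin, 50 μM IPTG and 0.2% rhamnose. Pooled colonies were amplicon-sequenced on an Illumina HiSeq 2500.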

Sequence | self-splicing fitness (ln) (30 °C) | self-splicing fitness (ln) (37 °C)
GCGUAGCAAUAUUACGUCGC | -2.62 ± 0.13 | -1.84 ± 0.21
GCGUAGCAAUAUUACGUCUU | -3.15 ± 0.098 | -1.93 ± 0.1
GCGUAGCAAUAUUACGUGUC | -3.83 ± 0.27 | -2.06 ± 0.14
GCUAAGCAAUAUUACGAAAU | -1.64 ± 0.11 | -0.218 ± 0.1
GCUAAGCAAUAUUACGAACC | -0.414 ± 0.15 | 1.05 ± 0.23
GCUAAGCAAUAUUACGACGA | -0.978 ± 0.088 | -0.529 ± 0.1
GCUAAGCAAUAUUACGAGAU | -2.3 ± 0.12 | -1.51 ± 0.14
GCUAAGCAAUAUUACGAGCG | -1.7 ± 0.11 | -0.246 ± 0.12
GCUAAGCAAUAUUACGAUAU | -0.896 ± 0.066 | -0.164 ± 0.094
GCUAAGCAAUAUUACGCGAU | -2.05 ± 0.45 | -0.565 ± 0.25
GCUAAGCAAUAUUACGCUCA | -1 ± 0.11 | -1.52 ± 0.14
GCUAAGCAAUAUUACGGACG | -0.941 ± 0.058 | -0.51 ± 0.074
GCUAAGCAAUAUUACGGAUC | -0.406 ± 0.11 | -0.265 ± 0.17
GCUAAGCAAUAUUACGGAUG | -1.52 ± 0.081 | -0.677 ± 0.12
GCUAAGCAAUAUUACGGCGG | -3.78 ± 0.12 | -2.7 ± 0.15
GCUAAGCAAUAUUACGGCUC | -0.551 ± 0.092 | -0.942 ± 0.098
GCUAAGCAAUAUUACGGGCU | – | -2.23 ± 0.31
GCUAAGCAAUAUUACGUAAC | -1.39 ± 0.11 | -0.735 ± 0.14
GCUCAGCAAUAUUACGACCU | -0.614 ± 0.2 | -0.401 ± 0.21
GCUCAGCAAUAUUACGACGA | -1.94 ± 0.17 | -1.5 ± 0.18
GCUCAGCAAUAUUACGAGAC | -3.42 ± 0.32 | -0.338 ± 0.2
GCUCAGCAAUAUUACGAGAG | -1.03 ± 0.14 | -0.875 ± 0.14
GCUCAGCAAUAUUACGAGCU | -1.77 ± 0.2 | -2.27 ± 0.35
GCUCAGCAAUAUUACGAGGG | -2.38 ± 0.16 | -2.57 ± 0.25
GCUCAGCAAUAUUACGAGUU | -1.85 ± 0.079 | -0.858 ± 0.09

Sequence | self-splicing fitness (ln) (30 °C) | self-splicing fitness (ln) (37 °C)
GCUCAGCAAUAUUACGAUGG | -1.05 ± 0.11 | 0.368 ± 0.13
GCUCAGCAAUAUUACGCACG | -3.19 ± 0.31 | -1.02 ± 0.24
GCUCAGCAAUAUUACGCGAC | -3.49 ± 0.3 | 0.167 ± 0.16
GCUCAGCAAUAUUACGCGCA | -1.77 ± 0.13 | -0.106 ± 0.13
GCUCAGCAAUAUUACGCGCC | -2.16 ± 0.14 | -1.92 ± 0.17
GCUCAGCAAUAUUACGCUAC | -3.26 ± 0.17 | -2.69 ± 0.2
GCUCAGCAAUAUUACGCUGA | -2.82 ± 0.35 | –
GCUCAGCAAUAUUACGGAAG | -2.23 ± 0.09 | -0.736 ± 0.11
GCUCAGCAAUAUUACGGCGU | -0.15 ± 0.062 | 0.324 ± 0.082
GCUCAGCAAUAUUACGGGCA | -1.76 ± 0.17 | -0.69 ± 0.17
GCUCAGCAAUAUUACGGGCU | -4.72 ± 0.38 | -2.63 ± 0.21
GCUCAGCAAUAUUACGGGUA | -0.401 ± 0.077 | -0.454 ± 0.078
GCUCAGCAAUAUUACGGUUC | -0.806 ± 0.065 | 0.0632 ± 0.071
GCUCAGCAAUAUUACGGUUU | -0.112 ± 0.059 | 0.228 ± 0.073
GCUCAGCAAUAUUACGUAUA | -1.73 ± 0.096 | -0.338 ± 0.085
GCUCAGCAAUAUUACGUUAG | -2.79 ± 0.13 | -0.765 ± 0.12
GCUCAGCAAUAUUACGUUUC | -0.455 ± 0.065 | -0.0579 ± 0.091
GCUGAGCAAUAUUACGAAAU | -3.27 ± 0.2 | -2.43 ± 0.22
GCUGAGCAAUAUUACGACGC | – | -1.7 ± 0.42
GCUGAGCAAUAUUACGAGGA | -2.31 ± 0.16 | -2.48 ± 0.18
GCUGAGCAAUAUUACGAGUC | – | -2.04 ± 0.25
GCUGAGCAAUAUUACGAUAA | -3.51 ± 0.4 | -3.27 ± 0.35
GCUGAGCAAUAUUACGCAUA | -3.37 ± 0.3 | -1.82 ± 0.17
GCUGAGCAAUAUUACGCCAA | – | -3.52 ± 0.46
GCUGAGCAAUAUUACGCGGU | -3.6 ± 0.21 | -2.02 ± 0.3

Sequence | self-splicing fitness (ln) (30 °C) | self-splicing fitness (ln) (37 °C)
GCUGAGCAAUAUUACGCUCU | -1.12 ± 0.17 | -0.769 ± 0.2
GCUGAGCAAUAUUACGCUGC | -2.56 ± 0.32 | -1.92 ± 0.3
GCUGAGCAAUAUUACGGCCA | -2.02 ± 0.28 | -1.9 ± 0.38
GCUGAGCAAUAUUACGGGCU | -1.89 ± 0.31 | –
GCUGAGCAAUAUUACGGGGA | -2.81 ± 0.3 | -2.03 ± 0.32
GCUGAGCAAUAUUACGGGGG | -2.59 ± 0.2 | -1.8 ± 0.21
GCUGAGCAAUAUUACGGUAG | -3.27 ± 0.24 | -3.11 ± 0.3
GCUGAGCAAUAUUACGUAAU | -3.77 ± 0.24 | -1.29 ± 0.14
GCUGAGCAAUAUUACGUCGA | -1.34 ± 0.24 | -1.72 ± 0.24
GCUGAGCAAUAUUACGUCUC | – | -1.16 ± 0.35
GCUGAGCAAUAUUACGUUGU | -3.56 ± 0.14 | -2.83 ± 0.17
GCUUAGCAAUAUUACGAGUG | -0.38 ± 0.096 | -0.545 ± 0.11
GCUUAGCAAUAUUACGAUGA | -0.547 ± 0.12 | -0.556 ± 0.12
GCUUAGCAAUAUUACGCAGU | -2.45 ± 0.25 | -3.16 ± 0.47
GCUUAGCAAUAUUACGCCCA | -1.96 ± 0.24 | -0.0842 ± 0.23
GCUUAGCAAUAUUACGCCUG | -2.35 ± 0.14 | -1.02 ± 0.13
GCUUAGCAAUAUUACGCGAA | -2.55 ± 0.11 | -1.98 ± 0.11
GCUUAGCAAUAUUACGCGUA | -1.39 ± 0.16 | -1.71 ± 0.17
GCUUAGCAAUAUUACGCUGA | -2.77 ± 0.17 | -3.37 ± 0.26
GCUUAGCAAUAUUACGGCAG | -4.61 ± 0.46 | -2.63 ± 0.34
GCUUAGCAAUAUUACGGCAU | -1.79 ± 0.17 | -1.61 ± 0.2
GCUUAGCAAUAUUACGGCGA | -1.75 ± 0.14 | -1.33 ± 0.16
GCUUAGCAAUAUUACGGGAU | -1.56 ± 0.074 | -0.453 ± 0.09
GCUUAGCAAUAUUACGGGGG | -1.53 ± 0.11 | -1.54 ± 0.15
GCUUAGCAAUAUUACGGUAA | -2.18 ± 0.14 | -1.54 ± 0.13

Sequence | self-splicing fitness (ln) (30 °C) | self-splicing fitness (ln) (37 °C)
GCUUAGCAAUAUUACGUCAC | – | -1.53 ± 0.5
GCUUAGCAAUAUUACGUCGU | -0.74 ± 0.097 | 0.231 ± 0.14
GCUUAGCAAUAUUACGUGUA | -1.03 ± 0.077 | -0.175 ± 0.083
GGAAAGCAAUAUUACGAAGG | -3.22 ± 0.23 | -2.5 ± 0.38
GGAAAGCAAUAUUACGAGAU | -2.44 ± 0.17 | -2.17 ± 0.29
GGAAAGCAAUAUUACGAGUC | -0.868 ± 0.11 | -1.48 ± 0.12
GGAAAGCAAUAUUACGAUCA | 0.0514 ± 0.081 | -0.282 ± 0.099
GGAAAGCAAUAUUACGCAGU | -2.78 ± 0.13 | -1.47 ± 0.12
GGAAAGCAAUAUUACGCAUU | -2.5 ± 0.12 | -2.55 ± 0.25
GGAAAGCAAUAUUACGCCAU | -1.76 ± 0.18 | -0.946 ± 0.31
GGAAAGCAAUAUUACGCCUA | -1.28 ± 0.18 | -0.669 ± 0.23
GGAAAGCAAUAUUACGCGAU | -2.98 ± 0.18 | -1.02 ± 0.17
GGAAAGCAAUAUUACGCGGA | -1.96 ± 0.13 | -0.353 ± 0.1
GGAAAGCAAUAUUACGCGGU | -3.32 ± 0.13 | -3.21 ± 0.2
GGAAAGCAAUAUUACGCUCA | -0.428 ± 0.12 | -0.303 ± 0.17
GGAAAGCAAUAUUACGCUUU | – | -2.56 ± 0.3
GGAAAGCAAUAUUACGGAAU | -2.55 ± 0.16 | -1.1 ± 0.15
GGAAAGCAAUAUUACGGACG | -0.879 ± 0.087 | 0.281 ± 0.1
GGAAAGCAAUAUUACGGAGC | -1.43 ± 0.17 | -1.49 ± 0.2
GGAAAGCAAUAUUACGGCGC | -0.392 ± 0.16 | 0.131 ± 0.21
GGAAAGCAAUAUUACGGCUA | -0.34 ± 0.2 | -0.931 ± 0.18
GGAAAGCAAUAUUACGGGCG | -0.494 ± 0.079 | -0.213 ± 0.11
GGAAAGCAAUAUUACGGUAU | -1.82 ± 0.11 | -1.31 ± 0.13
